Assay results reported in publication PMC9477280 (PLoS Pathogens, 2022).

B1: JXN-E2 (VHH)
VHH: TGGLVPPGGSLQLSCTSSGFFLDYLGVAWFRQAPGNEREGVSCIDYTGDNIAYASSMKGRATISRDKDANTVTLEMNGLKPEDTAVYYCAAHRSATTYADGKYRCPLENEYDYWGQGIQVTVSS
notes: also called JXS-2 (vector name); not shown: thioredoxin, N-terminal, kept; E-tag, C-terminal, kept
B2: JWU-G8 (VHH)
VHH: SGGGLVQPGGSLRLSCATSGFYFAGYWMHWVRQVPGQGLEWVSGIDLGSTMLNYRDSVKGRFSISRDNAKNTVYLQMHSLKPEDTALYFCARDRRAGATSGGYDPDVRGQGTQVTVSS
notes: also called αInt-17; JWZ-15 (vector name)
B3: JWU-D8 (VHH)
VHH: TGGGLVQPGGSLRLSCAASGFYFSGYWMHWVRQVQGQGLKWVSGINIDDTKSSYTDSVKGRFTISRDNTKNTLYLQMDSLQPEDTGVYYCARDRRAGQISGGYDPDYRGQGTQVTVSS
notes: also called αInt-14; JWZ-9 (vector name)
B4: JUV-C4 (VHH)
VHH: TGGGLVQAGGSLTLSCVASGRAVSSFAMGWFRQIPGREQRDFVAFIGDYGLTTYYANSVKGRFTISRSNAENTLYLQMNSLEFEDAAVYFCAARDAYRSGTTNPSAYDYWGQGTQVTVSS
notes: also called αFla-2; JVE-4 (vector name); not shown: thioredoxin, N-terminal, kept; E-tag, C-terminal, kept

Key:
MC1061 /EPEC intimin = target: T1, MC1061 /EPEC intimin (Escherichia coli O127:H6, JPN15 …, UniProt P19809); test: ELISA; dilution ELISA with intimin displayed on the surface of E. coli MC1061 as antigen; soluble thioredoxin/VHH/E-tag; EC50 estimates (apparent affinity); details: one partner purified
T1 construct: also called E. coli 1061/pInt (EPEC); EPEC intimin expressed on the surface of strain MC1061
T1 sequence (P19809 42-939): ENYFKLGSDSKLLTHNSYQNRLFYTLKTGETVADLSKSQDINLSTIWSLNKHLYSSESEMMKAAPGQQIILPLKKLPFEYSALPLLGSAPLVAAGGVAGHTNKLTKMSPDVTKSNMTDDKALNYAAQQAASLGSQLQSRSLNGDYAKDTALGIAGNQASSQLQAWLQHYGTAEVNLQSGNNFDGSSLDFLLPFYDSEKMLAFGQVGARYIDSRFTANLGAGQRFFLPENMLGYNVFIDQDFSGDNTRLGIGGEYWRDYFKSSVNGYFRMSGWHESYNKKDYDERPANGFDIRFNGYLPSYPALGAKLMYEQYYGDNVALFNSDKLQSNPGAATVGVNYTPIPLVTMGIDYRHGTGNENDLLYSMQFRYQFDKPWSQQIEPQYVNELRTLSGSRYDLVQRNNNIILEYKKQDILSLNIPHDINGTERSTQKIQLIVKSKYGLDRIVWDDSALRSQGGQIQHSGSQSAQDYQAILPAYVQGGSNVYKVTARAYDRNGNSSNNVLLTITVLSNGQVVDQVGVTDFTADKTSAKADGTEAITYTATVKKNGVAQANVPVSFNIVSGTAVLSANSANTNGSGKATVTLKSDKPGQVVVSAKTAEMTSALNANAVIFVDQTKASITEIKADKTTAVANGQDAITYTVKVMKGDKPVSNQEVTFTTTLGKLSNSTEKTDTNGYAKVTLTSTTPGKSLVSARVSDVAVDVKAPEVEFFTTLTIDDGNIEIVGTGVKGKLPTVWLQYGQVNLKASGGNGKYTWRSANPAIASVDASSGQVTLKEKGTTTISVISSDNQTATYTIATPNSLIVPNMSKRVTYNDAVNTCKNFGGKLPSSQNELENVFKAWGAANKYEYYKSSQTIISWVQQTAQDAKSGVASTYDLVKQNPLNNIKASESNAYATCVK

C. rodentium intimin = C. rodentium intimin (Citrobacter rodentium DBS100, UniProt Q07591); test: ELISA; EC50 told in footnote g of Table 1; form of the C. rodentium intimin antigen not stated
EPEC intimin = target: T2, EPEC intimin (Escherichia coli O127:H6 E2348/69 (EPEC), UniProt P19809); test: ELISA; dilution ELISA; purified antigen coated directly on Nunc Maxisorp wells, typically 1 μg/mL in PBS overnight at 4°C, blocked with 4% milk in PBS 0.1% Tween; thioredoxin/VHH/E-tag from 125 nM in 1:5 serial dilutions, 1 h 37°C; detected with HRP anti-E-tag; EC50 estimates (apparent affinity); Trace = EC50 >125 nM, poor but detectable; details: both partners purified
T2 construct: also called recombinant intimin (EPEC)
T2 sequence (P19809 42-939): as above

EHEC intimin = target: T3, EHEC intimin (Escherichia coli O157:H7 EDL933 (EHEC), UniProt P43261); test: as above; details: both partners purified
T3 construct: also called recombinant intimin (EHEC)
T3 sequence (P43261 40-934): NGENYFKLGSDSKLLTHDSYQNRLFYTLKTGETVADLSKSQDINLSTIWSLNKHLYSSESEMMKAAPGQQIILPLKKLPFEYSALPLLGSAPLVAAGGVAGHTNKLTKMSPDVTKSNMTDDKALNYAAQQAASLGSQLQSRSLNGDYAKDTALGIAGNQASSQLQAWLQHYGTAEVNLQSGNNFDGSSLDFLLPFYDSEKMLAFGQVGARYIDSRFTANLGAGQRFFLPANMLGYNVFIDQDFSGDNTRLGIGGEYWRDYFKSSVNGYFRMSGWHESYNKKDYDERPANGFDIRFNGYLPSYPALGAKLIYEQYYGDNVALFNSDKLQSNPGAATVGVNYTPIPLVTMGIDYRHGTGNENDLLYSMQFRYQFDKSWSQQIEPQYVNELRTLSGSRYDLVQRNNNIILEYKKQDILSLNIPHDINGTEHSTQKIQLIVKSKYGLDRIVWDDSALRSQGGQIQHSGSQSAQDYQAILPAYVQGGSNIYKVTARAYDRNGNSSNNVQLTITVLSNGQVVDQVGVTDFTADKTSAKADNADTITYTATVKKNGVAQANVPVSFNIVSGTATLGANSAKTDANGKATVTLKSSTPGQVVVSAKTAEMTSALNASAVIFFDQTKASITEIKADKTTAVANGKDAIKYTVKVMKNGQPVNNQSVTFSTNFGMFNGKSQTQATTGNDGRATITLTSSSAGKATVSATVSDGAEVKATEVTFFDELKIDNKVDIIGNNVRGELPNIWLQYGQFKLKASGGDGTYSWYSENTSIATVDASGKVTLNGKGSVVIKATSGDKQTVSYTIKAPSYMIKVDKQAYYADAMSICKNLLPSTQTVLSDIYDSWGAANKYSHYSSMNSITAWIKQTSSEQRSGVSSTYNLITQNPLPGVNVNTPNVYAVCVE

[1] = target: T4, MC1061 expressing EHEC intimin (Escherichia coli O157:H7 EDL933 (EHEC), UniProt P43261); test: ELISA; dilution ELISA with intimin displayed on the surface of E. coli MC1061 as antigen; soluble thioredoxin/VHH/E-tag; EC50 estimates (apparent affinity); details: one partner purified
T4 construct: also called E. coli 1061/pInt (EHEC); EHEC intimin expressed on the surface of strain MC1061
T4 sequence (P43261 40-934): as above

EPEC flagella = EPEC flagella (Escherichia coli O127:H6 E2348/69 (EPEC), UniProt B7USU2); test: ELISA; dilution ELISA; purified antigen coated directly on Nunc Maxisorp wells, typically 1 μg/mL in PBS overnight at 4°C, blocked with 4% milk in PBS 0.1% Tween; thioredoxin/VHH/E-tag from 125 nM in 1:5 serial dilutions, 1 h 37°C; detected with HRP anti-E-tag; EC50 estimates (apparent affinity); Trace = EC50 >125 nM, poor but detectable; details: both partners purified
Sequence of EPEC flagella (B7USU2 2-548): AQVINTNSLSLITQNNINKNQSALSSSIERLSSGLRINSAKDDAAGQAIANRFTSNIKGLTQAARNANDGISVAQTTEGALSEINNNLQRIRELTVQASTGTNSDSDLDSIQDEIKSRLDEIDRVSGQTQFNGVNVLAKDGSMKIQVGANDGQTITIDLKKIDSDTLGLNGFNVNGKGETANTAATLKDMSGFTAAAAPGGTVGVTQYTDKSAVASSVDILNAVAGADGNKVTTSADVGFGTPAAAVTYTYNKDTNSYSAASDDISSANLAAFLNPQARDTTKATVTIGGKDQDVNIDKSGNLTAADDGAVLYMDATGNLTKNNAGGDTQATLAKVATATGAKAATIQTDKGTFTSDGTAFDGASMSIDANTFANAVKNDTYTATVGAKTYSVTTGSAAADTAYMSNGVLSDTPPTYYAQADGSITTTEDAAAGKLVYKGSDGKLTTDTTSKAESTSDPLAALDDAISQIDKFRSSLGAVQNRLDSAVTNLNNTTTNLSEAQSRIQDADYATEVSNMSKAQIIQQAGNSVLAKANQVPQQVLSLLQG

EPEC FliC = target: T5, EPEC FliC (Escherichia coli EPEC, likely O127:H6 …, UniProt B7USU2); test: as above; details: both partners purified
T5 construct: also called EPEC rFliC; recombinant FliC
T5 sequence (B7USU2 2-548): as above

| Binder | binding result (EHEC intimin) | EC50 (MC1061 /EPEC intimin) [nM] | binding result [1] | further results |
| --- | --- | --- | --- | --- |
| B1 | no binding (tested: 125 nM (highest VHH concentration)) |  |  | binding result (MC1061 /EPEC intimin): no binding (tested: 125 nM (highest VHH concentration)); EC50 (C. rodentium intimin): ~0.5 nM; binding result (EPEC intimin): no binding (tested: 125 nM (highest VHH concentration)) |
| B2 | no binding (tested: 125 nM (highest VHH concentration)) | 0.5 | binds |  |
| B3 |  | 0.5 | binds |  |
| B4 |  |  |  | EC50 (EPEC flagella): 1 nM; EC50 (EPEC FliC): 0.3 nM |
